Measured values as given in PMC7057681 (ACS Omega, 2020).

Legend:
SEC-SAXS = target: the molecule itself; test: SEC-SAXS
SEC [1] = target: the molecule itself; test: SEC
SEC [2] = target: the molecule itself; test: SEC; remark: listed apart in the source

B1: S100A3 R51Q mutant (natural protein, human)
chain: MARPLEQAVAAIVCTFQEYAGRCGDKYKLCQAELKELLQKELATWTPTEFQECDYNKFMSVLDTNKDCEVDFVEYVRSLACLCLYCHEYFKDCPSEPPCSQ
stoichiometry N (SEC-SAXS): 2 | stoichiometry N (SEC [1]): 4

B2: S100A3 R51E mutant (natural protein, human)
chain: MARPLEQAVAAIVCTFQEYAGRCGDKYKLCQAELKELLQKELATWTPTEFEECDYNKFMSVLDTNKDCEVDFVEYVRSLACLCLYCHEYFKDCPSEPPCSQ
stoichiometry N (SEC [2]): 4

B3: citrullinated S100A3 (R51Z), WT S100A3 citrullinated in vitro by PAD3 (natural protein, human)
chain: MARPLEQAVAAIVCTFQEYAGRCGDKYKLCQAELKELLQKELATWTPTEFRECDYNKFMSVLDTNKDCEVDFVEYVRSLACLCLYCHEYFKDCPSEPPCSQ
modifications: citrulline at R51 (by PAD3 in vitro)
stoichiometry N (SEC [1]): 4
